What was measured:
[1] = molecular target: Saccharomyces cerevisiae Tel1 (TEL1-FLAG), endogenously purified (S. cerevisiae) (UniProt P38110); test: cryo-EM structure; Tel1-FLAG purified from S. cerevisiae, 20–50 μg/mL in 20 mM HEPES pH 8.0, 40 mM KOAc, 5 mM MgCl2, 0.1% trehalose, 2 mM DTT, 0.01% NP-40; symmetric dimer (C2, 4.1 Å) and asymmetric dimer (4.3 Å) classes
[2] = molecular target: GST-Xrs2 (full-length S. cerevisiae Xrs2) (S. cerevisiae) (UniProt P33301); test: pull-down; glutathione sepharose saturated with full-length GST-Xrs2 added to lysates of yeast expressing wild-type or mutant Tel1; 2 h at 4 °C, washed 3 times with lysis buffer; immunoblot with anti-PAP antibody
Chain of GST-Xrs2 (full-length S. cerevisiae Xrs2) (S. cerevisiae) (P33301 whole entry): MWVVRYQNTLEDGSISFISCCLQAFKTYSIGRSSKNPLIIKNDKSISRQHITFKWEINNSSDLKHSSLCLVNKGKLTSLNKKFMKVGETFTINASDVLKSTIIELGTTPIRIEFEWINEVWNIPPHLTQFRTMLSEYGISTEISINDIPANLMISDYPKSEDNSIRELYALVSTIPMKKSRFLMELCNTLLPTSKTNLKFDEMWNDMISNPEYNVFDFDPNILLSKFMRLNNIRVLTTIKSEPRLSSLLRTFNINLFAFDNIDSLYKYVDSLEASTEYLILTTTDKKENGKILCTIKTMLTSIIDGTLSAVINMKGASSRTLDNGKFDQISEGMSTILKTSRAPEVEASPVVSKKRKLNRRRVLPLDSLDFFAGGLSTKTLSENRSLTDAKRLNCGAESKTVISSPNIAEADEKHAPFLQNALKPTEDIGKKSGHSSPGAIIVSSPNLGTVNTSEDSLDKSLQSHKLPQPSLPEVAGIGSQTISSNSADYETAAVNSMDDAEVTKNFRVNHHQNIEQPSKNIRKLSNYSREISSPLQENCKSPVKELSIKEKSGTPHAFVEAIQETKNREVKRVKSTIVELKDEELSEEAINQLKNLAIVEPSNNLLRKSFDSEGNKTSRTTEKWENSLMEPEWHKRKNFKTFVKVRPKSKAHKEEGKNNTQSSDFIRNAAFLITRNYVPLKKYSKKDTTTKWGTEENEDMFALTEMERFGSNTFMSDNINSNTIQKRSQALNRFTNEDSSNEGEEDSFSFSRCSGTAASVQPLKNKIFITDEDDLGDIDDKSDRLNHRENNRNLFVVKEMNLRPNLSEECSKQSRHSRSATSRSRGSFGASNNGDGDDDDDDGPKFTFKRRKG

Row | stoichiometry N [1] | decrease of Xrs2 binding against wild-type Tel1 [2] [%] | Substance
1 | 2 |  | Saccharomyces cerevisiae Tel1 (TEL1-FLAG), endogenously purified, P38110 1-2787
2 |  | 100 | Tel1 K2751E (TAP-tagged), P38110 1-2787

From publication PMC6796912
